Laboratory results as given in patent US20250011433A1 (published 2025).
Positions count from the first letter of the chain named. One block for each binder: values may come before it.

Molecular target: C1q (UniProt P02745 23-245; P02746 28-253; P02747 29-245)
Assay: ELISA

Chain of C1q (P02745 23-245, chain 1 of 3): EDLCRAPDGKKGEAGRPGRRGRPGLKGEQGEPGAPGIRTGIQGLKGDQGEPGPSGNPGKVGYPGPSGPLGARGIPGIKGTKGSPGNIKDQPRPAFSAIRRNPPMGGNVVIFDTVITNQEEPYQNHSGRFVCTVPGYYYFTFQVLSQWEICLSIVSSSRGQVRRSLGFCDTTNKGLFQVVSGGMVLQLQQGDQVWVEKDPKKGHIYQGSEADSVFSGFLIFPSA
Chain of C1q (P02746 28-253, chain 2 of 3): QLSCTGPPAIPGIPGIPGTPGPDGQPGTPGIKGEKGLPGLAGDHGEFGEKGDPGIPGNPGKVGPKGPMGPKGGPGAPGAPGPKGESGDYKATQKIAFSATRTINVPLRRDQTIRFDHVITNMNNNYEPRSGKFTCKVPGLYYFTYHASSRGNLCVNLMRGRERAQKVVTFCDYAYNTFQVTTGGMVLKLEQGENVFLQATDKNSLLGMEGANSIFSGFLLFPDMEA
Chain of C1q (P02747 29-245, chain 3 of 3): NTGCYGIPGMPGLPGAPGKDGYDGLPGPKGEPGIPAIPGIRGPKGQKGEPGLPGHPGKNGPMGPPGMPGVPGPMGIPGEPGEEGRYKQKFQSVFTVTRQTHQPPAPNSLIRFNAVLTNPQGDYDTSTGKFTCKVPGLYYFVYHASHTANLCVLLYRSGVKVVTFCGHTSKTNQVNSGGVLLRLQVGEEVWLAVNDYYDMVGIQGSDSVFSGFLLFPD

EC50: 0.334 µg/mL
B1: G998 (Fc fusion)
chain: EPKSCDKTHTCPPCPAPELLGGPSVFLFPPKPKDTLMISRTPEVTCVVVDVEFEDPEVKFNWYVDGVEVHNAKTKPREEQYASTYRVVSVLTVLHQDWLNGKEYKCKVTNKALPAPIEKTISKAKGQPREPQVYTLPPSRDELTKNQVSLTCLVKGFYPSDIAVEWESNGQPENNYKTTPPVLDSDGSFFLYSKLTVDKSRWQQGNVFSCSVMHEALHNHYTQKSLSLSPGKERKCCVECPPCP

EC50: 0.0166 µg/mL
B2: G997 (Fc fusion)
chain: B1 chain with A82N

EC50: 0.278 µg/mL
B3: G996 (Fc fusion)
chain: B1 chain with G21R, A82N
